Assay results taken from patent publication US20250136696A1 (HARBOUR BIOMED SHANGHAI, published 2025).
Changes are numbered by the printed parent chain. Values belong to the binder of their own block, whether it stands above or below them.

What was measured:
[1] = biological target: T1, human B7-H7 on the cell surface (human, UniProt Q9UM44 23-414); experiment: flow cytometry, HEK-293/hu B7-H7 cells
T1 construct: whole, on cells; also called hB7-H7; hu B7-H7
T1 sequence (looked up): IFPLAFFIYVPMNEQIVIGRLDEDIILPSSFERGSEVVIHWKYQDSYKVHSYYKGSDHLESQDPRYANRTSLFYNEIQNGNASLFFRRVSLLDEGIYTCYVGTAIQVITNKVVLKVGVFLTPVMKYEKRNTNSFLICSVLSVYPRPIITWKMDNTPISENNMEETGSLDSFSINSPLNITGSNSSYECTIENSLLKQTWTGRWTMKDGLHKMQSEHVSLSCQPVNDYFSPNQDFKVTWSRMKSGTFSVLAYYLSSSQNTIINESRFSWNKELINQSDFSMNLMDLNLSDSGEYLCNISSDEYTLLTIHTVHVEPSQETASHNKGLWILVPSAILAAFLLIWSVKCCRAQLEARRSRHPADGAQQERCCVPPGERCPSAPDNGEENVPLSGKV
Method: (§1) This example was intended to study the in vitro activity of H2L2 monoclonal antibodies against human B7-H7 in binding to human/cynomolgus monkey B7-H7. Since homologous molecules of B7-H7 were not present in mice, the detection was not performed. […] The cells were adjusted to a cell density of 1×10⁶ cells/mL, respectively. The cells were seeded in a 96-well V-bottom plate (Corning, #3894) at 100 μL/well, and the antibody to be tested at 2× final concentration with 3-fold concentration gradient dilution was then added at 100 μL/well. The cells were incubated at 4° C. for 2 hours in the dark. After the incubation, the cells were rinsed twice by adding pre-chilled PBS containing 2% BSA at 100 μl/well, and centrifuged at 500 g at 4° C. for 5 minutes, and the supernatant was discarded. […] The cells were washed twice by adding pre-chilled PBS containing 2% BSA at 100 μL/well, and centrifuged at 500 g at 4° C. for 5 minutes, and the supernatant was discarded. Finally, the cells were resuspended in pre-chilled PBS containing 2% BSA at 200 μL/well, and the fluorescence signal values were read using an ACEA Novocyte3000 flow cytometer.

[2] = biological target: T1, human B7-H7 on the cell surface; experiment: flow cytometry, HCC827 cells
Method: as §1

[3] = biological target: T2, cynomolgus monkey B7-H7 on the cell surface (cynomolgus monkey); experiment: flow cytometry, HEK-293/cyno B7-H7 cells
T2 construct: whole, on cells; also called cyno B7-H7
Method: as §1

[4] = biological target: T1, human B7-H7 on the cell surface; experiment: flow cytometry, LS180 cells
Method: as §1

[5] = biological target: T3, CD275/ICOS ligand protein, human, recombinant (Fc tag) (Sino Biological, 11559-H02H) (human, UniProt O75144 19-258); experiment: ELISA on coated B7 family protein
T3 construct: Bought; also called B7H2
T3 sequence (looked up): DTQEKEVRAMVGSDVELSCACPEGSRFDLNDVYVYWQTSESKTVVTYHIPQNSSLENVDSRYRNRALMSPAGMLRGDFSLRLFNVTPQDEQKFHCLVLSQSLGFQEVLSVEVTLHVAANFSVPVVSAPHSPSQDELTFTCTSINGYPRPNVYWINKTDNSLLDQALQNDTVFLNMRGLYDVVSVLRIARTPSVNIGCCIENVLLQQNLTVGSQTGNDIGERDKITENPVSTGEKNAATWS
Method: B7 family proteins (see Table 7 for details) were respectively diluted to […] with PBS, added into a 96-well plate (Corning, #9018) at 100 μl/well, and incubated at 4° C. overnight. After the liquid was discarded, the plate was washed 3 times with a PBST buffer (pH 7.4, containing 0.05% tween-20), 250 μl of blocking solution containing 2% BSA was added, and the plate was incubated for 1 hour at 37° C. The blocking solution was discarded, the plate was washed 3 times with PBST buffer (pH 7.4, containing 0.05% Tween-20), the antigen-binding protein to be tested was diluted to 2 concentrations of 10 nM and 1 nM, 100 μl of the diluted antigen-binding protein was added to each well, and the plate was incubated for 1 hour at 37° C., with the isotype antibody as the control. After the plate was washed 3 times with PBST buffer (pH 7.4, containing 0.05% Tween-20), goat anti-human HRP secondary antibody (Invitrogen, #A18805) diluted 5000 times was added, and the plate was incubated at 37° C. for 1 hour in the dark. After the plate was washed 3 times with PBST buffer (pH 7.4, containing 0.05% tween-20), TMB (Biopanda, #TMB-S-003) was added at 100 μl/well, and the plate was placed at room temperature for about 30 minutes in the dark; and a stop solution (BBI life sciences, #E661006-0200) was added to each well at 50 μl/well to stop the reaction, and the absorbance at 450 nm (OD450) was determined in a microplate reader (PerkinElemer, #Enspire).

[6] = biological target: T4, biotinylated human B7-H7 protein (Acro Biosystems, B77-H82F5) (human, UniProt Q9UM44 23-344, biotinylated); experiment: BLI epitope competition on SA-captured biotinylated B7-H7; competitor (first antibody) PR003251
T4 construct: Bought soluble protein; also called biotin-B7H7 protein
T4 sequence (looked up): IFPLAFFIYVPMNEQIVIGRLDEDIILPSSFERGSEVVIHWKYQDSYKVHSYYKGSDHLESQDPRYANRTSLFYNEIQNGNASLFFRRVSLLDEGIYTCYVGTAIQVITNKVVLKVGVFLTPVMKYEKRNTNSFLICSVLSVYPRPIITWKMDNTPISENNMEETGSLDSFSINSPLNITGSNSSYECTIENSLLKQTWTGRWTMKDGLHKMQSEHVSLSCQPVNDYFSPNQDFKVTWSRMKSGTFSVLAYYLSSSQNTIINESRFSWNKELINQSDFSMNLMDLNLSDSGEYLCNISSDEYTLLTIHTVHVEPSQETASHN
Method: Epitope competition experiments were performed on the anti-B7-H7 antibodies using the ForteBio Octet Red96e platform with the same experimental buffer as described above. […] After being equilibrated in a buffer for 120 s, the sensors were immersed in various antibodies diluted to 100 nM for 240 s, and the final signal of the antibody binding to B7-H7 was recorded as the 100% signal for that antibody. Second step, epitope competition experiment: B7-H7 was captured using SA sensors at a capture height of 0.25 nm. The sensors were immersed in a first antibody (concentration: 100 nM) for 240 s, then the SA sensors were immersed in a mixture of the first antibody and a second antibody (final concentration of both antibodies: 100 nM) for 240 s, and the difference in signals before and after immersing the sensors in the mixture of the two antibodies was recorded as the signal for that antibody as the second antibody. The inhibition rate was calculated by the following equation, […]

B1: PR003264 (antibody, human IgG1, kappa)
heavy: not shown
light: DIQLTQSPSFLSASVGDRVTITCRASQGISSYFAWYQQKPGKAPKLLIYAASTLQSGVPSRFSGSGSGTEFTLTISSLQPEDFATYYCQHLNRYPWTFGQGTKVEIKRTVAAPSVFIFPPSDEQLKSGTASVVCLLNNFYPREAKVQWKVDNALQSGNSQESVTEQDSKDSTYSLSSTLTLSKADYEKHKVYACEVTHQGLSSPVTKSFNRGEC
notes: Human IgG1; also called 77G10D3
EC50 [1]: 1.68 nM
Maximum MFI [1]: 756000 MFI
EC50 [2]: 0.618 nM
Maximum MFI [2]: 57000 MFI
EC50 [3]: 0.829 nM
Maximum MFI [3]: 290000 MFI
EC50 [4]: 2.2 nM
Maximum MFI [4]: 21800 MFI

B3: PR003251 (antibody, human IgG1, kappa, V domains shown)
VH: QVQLVESGGGVVQPGRSLRLSCAVSGFTFSRYGMHWVRQAPGKGLDWVAVIWYNGNNKYYTDSVKGRFTISRDNSKNTLFLQMNSLRAEDTAVYYCARDGAYSYGPFDYWGQGTLVTVSS
VL: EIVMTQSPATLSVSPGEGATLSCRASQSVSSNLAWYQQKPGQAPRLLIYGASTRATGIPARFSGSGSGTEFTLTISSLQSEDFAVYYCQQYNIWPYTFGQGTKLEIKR
notes: Human IgG1; also called 29F2C8
EC50 [1]: 1.07 nM
Maximum MFI [1]: 813000 MFI
EC50 [2]: 0.0373 nM
Maximum MFI [2]: 53300 MFI
EC50 [3]: 0.522 nM
Maximum MFI [3]: 430000 MFI
Competitive inhibition rate (%) [6]: 97.9%

B4: PR003254 (antibody, human IgG1, kappa, V domains shown)
VH: B3 VH with V24A, R31S, D46E, V50D, T61A, F80Y, V93L, A101G
VL: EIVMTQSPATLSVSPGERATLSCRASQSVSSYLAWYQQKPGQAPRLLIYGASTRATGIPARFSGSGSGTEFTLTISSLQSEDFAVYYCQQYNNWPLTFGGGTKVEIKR
notes: Human IgG1; also called 59D6D2
EC50 [1]: 1.95 nM
Maximum MFI [1]: 762000 MFI
EC50 [2]: 0.192 nM
Maximum MFI [2]: 45900 MFI
EC50 [3]: 1.24 nM
Maximum MFI [3]: 389000 MFI
Competitive inhibition rate (%) [6]: 99.1%

B5: PR003262 (antibody, human IgG1, kappa, V domains shown)
VH: B3 VH with V24A, M34I, D46E, N56R, T61V, F80Y, A101G
VL: EIVMTQSPATLSVSPGERATLSCRASQSFSNNLAWYQQKPGQAPRLLIYGASTRATGIPARFSGSGSGTEFTLTISSLQSEDFAVYYCHQYNIWPLTFGGGTKVEIKR
notes: Human IgG1; also called 77D5A4
EC50 [1]: 1.33 nM
Maximum MFI [1]: 822000 MFI
EC50 [2]: 0.041 nM
Maximum MFI [2]: 54000 MFI
EC50 [3]: 0.59 nM
Maximum MFI [3]: 419000 MFI
Competitive inhibition rate (%) [6]: 96.4%

B6: PR003260 (antibody, human IgG1, kappa, V domains shown)
VH: QVQLVESGGGVVQPGRSLRLPCAASGFTFSRYGMHWVRQAPGKGLEWVADIWYDGSKKYYADSVKGRFTISRDNSKNTLYLQMNSLRAEDTAVYFCTRDGGYSYGPFDYWGQGTLVTVSS
VL: B5 VL with F29V, N31S, G50Y, T56P, G66E, H89Q, L96Y, G100Q, V104L
notes: Human IgG1; also called 70F3B1
EC50 [1]: 1.13 nM
Maximum MFI [1]: 807000 MFI
EC50 [2]: 0.0439 nM
Maximum MFI [2]: 53300 MFI
EC50 [3]: 0.588 nM
Maximum MFI [3]: 447000 MFI
Competitive inhibition rate (%) [6]: 100%

Second part, the binder after the results:

binding result [5]: no binding (tested: 10 nM)
EC50 [4]: 3.08 nM
Maximum MFI [4]: 24000 MFI
B2: PR004263 (antibody, human IgG1, kappa, L234A L235A)
heavy: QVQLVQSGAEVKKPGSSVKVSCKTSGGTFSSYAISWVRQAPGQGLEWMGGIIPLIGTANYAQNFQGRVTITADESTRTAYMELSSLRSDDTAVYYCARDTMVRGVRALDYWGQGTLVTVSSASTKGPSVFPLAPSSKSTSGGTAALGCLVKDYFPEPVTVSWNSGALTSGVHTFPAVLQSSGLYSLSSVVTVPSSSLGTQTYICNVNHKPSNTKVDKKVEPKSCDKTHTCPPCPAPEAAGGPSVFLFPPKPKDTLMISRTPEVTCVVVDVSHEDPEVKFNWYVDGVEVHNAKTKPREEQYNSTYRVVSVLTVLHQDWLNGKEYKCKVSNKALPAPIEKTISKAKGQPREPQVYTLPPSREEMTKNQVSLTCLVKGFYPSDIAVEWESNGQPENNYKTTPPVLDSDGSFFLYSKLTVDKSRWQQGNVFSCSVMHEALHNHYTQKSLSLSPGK
light: B1 light
notes: Variant of PR003264; Human IgG1 with LALA mutation in Fc

EC50 [1]: 1.06 nM
Maximum MFI [1]: 763000 MFI
EC50 [2]: 0.0789 nM
Maximum MFI [2]: 53200 MFI
EC50 [3]: 0.556 nM
Maximum MFI [3]: 410000 MFI
Competitive inhibition rate (%) [6]: 96.9%
B7: PR003263 (antibody, human IgG1, kappa, V domains shown)
VH: QVQLVESGGGVVQPGRSLRLSCAASGFTFSYYGLNWVRQAPGKGLEWVAVIWFDGTNKYYADSVKGRFTISRDDSKNTLYLQMNSLRAEDTAVYYCARGYGSGSYYNYVMDAWGQGASVTVSS
VL: B5 VL with F29V, N31S, R54G, E70D, H89Q, N92Y, I93K
notes: Human IgG1; also called 77E6C4

binding result [5]: no binding (tested: 10 nM)
B8: PR004260 (antibody, human IgG1, kappa, L234A L235A)
heavy: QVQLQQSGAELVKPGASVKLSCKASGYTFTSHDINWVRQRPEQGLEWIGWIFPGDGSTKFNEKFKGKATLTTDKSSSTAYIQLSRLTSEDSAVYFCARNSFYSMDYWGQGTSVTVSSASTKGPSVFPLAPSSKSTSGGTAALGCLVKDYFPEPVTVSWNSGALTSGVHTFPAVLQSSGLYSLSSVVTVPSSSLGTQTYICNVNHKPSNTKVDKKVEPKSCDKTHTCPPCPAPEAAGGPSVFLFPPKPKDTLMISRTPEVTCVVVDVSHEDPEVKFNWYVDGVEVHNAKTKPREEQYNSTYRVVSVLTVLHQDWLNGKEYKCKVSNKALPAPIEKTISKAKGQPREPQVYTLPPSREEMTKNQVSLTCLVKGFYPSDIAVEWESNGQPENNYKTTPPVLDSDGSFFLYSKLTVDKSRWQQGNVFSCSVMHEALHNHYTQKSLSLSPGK
light: DIVMSQSPSSLAVSAGEKVTMSCKSSQSLLNSRTRKNQLAWYQQKPGQSPKLLIYWASTRESGVPDRFTGSGSGTDFTLTISSVQAEDLAVYYCKQSYNLRTFGGGTKLEIKRTVAAPSVFIFPPSDEQLKSGTASVVCLLNNFYPREAKVQWKVDNALQSGNSQESVTEQDSKDSTYSLSSTLTLSKADYEKHKVYACEVTHQGLSSPVTKSFNRGEC
notes: Variant of PR003181; Human IgG1 with LALA mutation in Fc
